Assay [1] deals with T1, Human CCR2b (hCCR2b) (human, UniProt P41597-2 1-360).
T1 construct: also called CD192; MCP-1 receptor
T1 sequence: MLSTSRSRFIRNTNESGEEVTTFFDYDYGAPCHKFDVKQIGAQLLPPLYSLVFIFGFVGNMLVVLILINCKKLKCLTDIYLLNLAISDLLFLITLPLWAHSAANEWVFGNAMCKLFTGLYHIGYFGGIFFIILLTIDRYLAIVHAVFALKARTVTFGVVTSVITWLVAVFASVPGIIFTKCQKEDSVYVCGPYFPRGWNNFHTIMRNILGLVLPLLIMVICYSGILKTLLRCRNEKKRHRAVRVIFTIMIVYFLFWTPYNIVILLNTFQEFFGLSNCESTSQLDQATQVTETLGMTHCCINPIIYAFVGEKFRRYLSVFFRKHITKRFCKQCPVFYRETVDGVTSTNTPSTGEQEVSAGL
In words: flow cytometry on human whole blood, classical monocytes, median fluorescence intensity. As to the method: Human heparinized whole blood was incubated with the indicated antibodies for 45 min on ice, washed three times with cold PBS, then stained with secondary PE-labeled rabbit-anti-mouse Ig (R0439, DakoCytomation 1:200) for 30 min on ice, washed 3 times with cold PBS. The 10% mouse serum was added for 10 min and after that directly labeled antibodies against CD3-APCCy7, CD8-PE-Cy7, CD4-V500, CD123-PerCP, CD304-APC, CD116-FITC, CD16-PB. After washing and lysis of red blood cells with BD Lysing solution cells were acquired on a FACSCanto-II and analyzed by FACS-DIVA software. Classical monocytes were identified by light scatter properties, expression of CD116 and absence of CD16 and CD123. Median fluorescence intensity for PE is depicted on classical monocytes.
Background: Flow cytometry measures light scatter and fluorescence of single cells or particles in a stream.

For assay [2], the target named is T2, Marmoset CCR2b (Marmo-CCR2b) (marmoset monkey (Callithrix jacchus)).
T2 construct: On transfected CHO cells and, as native CCR2, on marmoset monocytes (splenocytes, PBMCs)
T2 chain: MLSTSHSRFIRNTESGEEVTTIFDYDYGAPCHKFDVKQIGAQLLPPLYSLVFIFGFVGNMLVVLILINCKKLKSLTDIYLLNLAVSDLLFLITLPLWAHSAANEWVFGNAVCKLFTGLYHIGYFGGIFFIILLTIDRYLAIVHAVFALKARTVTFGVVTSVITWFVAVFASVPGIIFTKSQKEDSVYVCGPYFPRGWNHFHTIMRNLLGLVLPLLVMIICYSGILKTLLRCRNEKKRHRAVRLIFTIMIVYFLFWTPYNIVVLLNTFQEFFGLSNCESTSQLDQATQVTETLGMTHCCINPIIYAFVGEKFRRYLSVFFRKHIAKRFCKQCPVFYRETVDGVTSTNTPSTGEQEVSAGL
In words: summary table; affinity to CCR2 expressed on marmoset PBMCs.

For assay [3], the target named is T3, Human CCR5 (human, UniProt P51681 1-352).
T3 construct: On transfected CHO cells; also called CD195
In words: summary table; binding to human CCR5.

For assay [4], the target named is T4, Rhesus CCR2b (rh-CCR2B) (rhesus monkey (Macaca mulatta), UniProt O18793 1-360).
T4 construct: On stably transfected CHO cells
T4 sequence: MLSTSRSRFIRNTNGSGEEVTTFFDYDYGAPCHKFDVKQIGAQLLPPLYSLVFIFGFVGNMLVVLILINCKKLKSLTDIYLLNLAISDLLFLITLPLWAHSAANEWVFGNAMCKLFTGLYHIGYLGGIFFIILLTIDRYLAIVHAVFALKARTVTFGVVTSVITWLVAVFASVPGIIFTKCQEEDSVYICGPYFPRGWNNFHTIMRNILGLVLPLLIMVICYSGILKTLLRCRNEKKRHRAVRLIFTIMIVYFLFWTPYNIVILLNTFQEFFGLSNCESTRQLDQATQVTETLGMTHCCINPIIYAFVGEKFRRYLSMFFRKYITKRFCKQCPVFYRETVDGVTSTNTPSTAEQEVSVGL
Description: flow cytometry on stably transfected CHO cells. As to the method:
(§1) To further investigate the specificity of the antibodies of the present invention, binding of Y4T3 to various CCR2 constructs was tested. […] Untransfected CHO cells (empty) were also analyzed. Antibodies were tested at concentration of 10 μg/ml and incubated with the cells for 30 min on ice. After 3 washing steps with cold PBS, the bound antibodies were detected with a PE-labeled polyclonal rabbit anti-mouse immunoglobulins antibody (R0439 from Agilent Dako, diluted 1:200 in PBS) for 30 min on ice. After two washing steps with PBS, cells were analyzed by flow cytometry. Mean fluorescence intensity for PE was determined on cells and is depicted.

Assay [5] deals with T5, Human CCR2b with the ECL2 domain of CCR2b of rhesus monkey (ECL2-hCCR2b) (human, with rhesus monkey ECL2 domain, UniProt O18793 1-360 (rhesus entry)).
T5 construct: On stably transfected CHO cells
T5 chain: T1 sequence with K183E, V189I
In words: flow cytometry on stably transfected CHO cells. How it is done:
as §1

Assay [6] concerns the target T6, Human CCR2b with the N-terminus of CCR2b of rhesus monkey (human, with rhesus monkey N-terminus, UniProt O18793 1-360 (rhesus entry)).
T6 construct: On stably transfected CHO cells
T6 chain: T1 sequence with E15G
Description: flow cytometry on stably transfected CHO cells, 10 µg/ml. How it is done:
as §1

In assay [7] the target is T7, Human CCR2b with ECL3 domain of CCR2b of rhesus monkey (human, with rhesus monkey ECL3 domain, UniProt O18793 1-360 (rhesus entry)).
T7 construct: On stably transfected CHO cells
T7 chain: T1 sequence with S281R
Described as above. As to the method:
as §1

Assay [8] addresses T3, Human CCR5. Description: flow cytometry on CHO cells transfected with human CCR5.
The target in assay [9] is T1, Human CCR2b (hCCR2b). Description: flow cytometry on human whole blood, 0.5 µg/ml. From the text:
Y4T3 was humanized by CDR-grafting resulting in hY4T3. Databases of Human IgG sequences and human germline sequences were searched for comparison to the murine VH domain and VL domain using BLAST search algorithms, and candidate human variable domains selected from the top 200 BLAST results. These were reduced to five candidates for VH (HC1-HC5 or H1-H5) and five candidates for VL (LC1-LC5 or L1-L5) based on a combination of framework homology, maintaining key framework residues and canonical loop structure. In total 25 humanized variants of Y4T3 were generated. The humanized Y4T3 variants were tested for binding to human CCR2+ monocytes in whole human blood by flow cytometry. 60 μl of lithium-heparin anticoagulated human whole blood was incubated for 45 min on ice with the indicated antibodies at 0.5 μg/ml in PBS. After three washing steps with cold PBS the bound antibodies were detected with PE-F(ab)2 goat anti human IgG (Jackson ImmunoResearch, 109-116-098) together with directly labeled antibodies against CD8, CD4, CD123 and CD116. After 2 washing steps with 0.9% NaCl red blood cells were lysed with Lysing Solution (BDBioscience) for 10 min in the dark. Cells were washed once with PBS and analyzed by flow cytometry to identify CCR2 expression on various cell types including monocytes. Mean fluorescence intensity (MFI) for PE was determined for these cell populations and is depicted.

The target of assay [10] is T2, Marmoset CCR2b (Marmo-CCR2b). In words: flow cytometry on marmoset splenocytes (legend of FIG. 8).
For assay [11], the target named is T8, Mouse CCR2 (mouse, UniProt P51683 1-373).
T8 construct: whole, on cells
In words: flow cytometry on mouse CCR2 CHO cells, various concentrations. As to the method:
Mouse CCR2 CHO cells and human CCR2 CHO cells were incubated for 45 min on ice with PBS or various concentrations of hY4T3. After 3 washing steps with cold PBS, cells were stained PE-F(ab)2 goat anti human IgG (1:300; Jackson, Cat.No.109-116-098) for 30 min on ice. After 3 washing steps with cold PBS cells were analyzed by FACS to measure mean fluorescence intensity (MFI).

This is an account of results in US20250059288A1 (GRANITE BIO, published 2025).

Numbering of substitutions follows the chain as printed.

T3 sequence (P51681 whole entry): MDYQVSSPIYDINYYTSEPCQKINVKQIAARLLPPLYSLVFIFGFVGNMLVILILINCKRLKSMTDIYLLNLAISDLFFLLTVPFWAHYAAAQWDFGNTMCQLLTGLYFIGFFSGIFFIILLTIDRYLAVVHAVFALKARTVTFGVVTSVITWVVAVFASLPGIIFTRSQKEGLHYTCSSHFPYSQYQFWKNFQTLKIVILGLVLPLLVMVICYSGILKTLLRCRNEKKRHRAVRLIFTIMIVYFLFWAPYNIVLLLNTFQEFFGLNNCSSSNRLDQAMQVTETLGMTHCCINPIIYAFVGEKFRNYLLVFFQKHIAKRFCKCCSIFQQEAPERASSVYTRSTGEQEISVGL
T8 sequence (P51683 whole entry): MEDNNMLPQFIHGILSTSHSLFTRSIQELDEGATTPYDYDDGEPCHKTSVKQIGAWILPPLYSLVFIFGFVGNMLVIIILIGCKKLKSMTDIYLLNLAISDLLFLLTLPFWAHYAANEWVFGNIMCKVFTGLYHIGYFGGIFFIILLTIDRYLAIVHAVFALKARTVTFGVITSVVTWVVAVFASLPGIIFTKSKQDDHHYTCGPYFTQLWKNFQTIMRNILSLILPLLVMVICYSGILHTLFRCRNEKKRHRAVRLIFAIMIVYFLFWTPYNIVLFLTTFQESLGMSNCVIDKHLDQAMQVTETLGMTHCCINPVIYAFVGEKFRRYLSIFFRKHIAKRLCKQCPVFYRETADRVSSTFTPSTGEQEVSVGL

B1: DOC-2 antibody (antibody, V domains shown)
VH: EVQLVESGGGLVKPGGSLKLSCVASGFTLSNYAMSWVRQSPEKRLEWVAEVSSSGIYIYYSDTVTGRFSISRDNAKNTLYLEMSSLRSEDTAIYYCARDRYAYAMDYWGHGTSVIVSS
VL: DIVMTQSPSSLAISVGQRVTLSCKSSQSLLNSYNQKNSLAWYQQKPGQSPKLLVYFASTRESGVPDRFIGSGSGTYFTLTITSVQAGDLADYFCQQHYSNPRTFGGGTRLEIK
notes: Prior art anti-CCR2 antibody; detected with anti-mouse Ig
Take B1: the binding result in [1] was “binds”.

B2: Antibody Y4T3 (antibody, V domains shown)
VH: QVHLQQSGTELARPGASIKLSCKTSGSTFTRYTMHWIKQRPGQGLEWIGFIVPSTGYTKYNQKFKDKATLTADKSSSTAYMHLNSLTSEDSALYYCARNKEVDYGASWGQGTLVTVSA
VL: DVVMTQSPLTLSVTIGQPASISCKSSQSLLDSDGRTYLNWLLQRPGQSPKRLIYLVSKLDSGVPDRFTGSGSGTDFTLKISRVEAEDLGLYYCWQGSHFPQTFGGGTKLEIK
notes: also called Y3T3 [sic]; Y4T4 [sic]
On to B2, for which the binding result in assay [2] is on record as “binds”; in assay [3], “no binding”; in assay [4], “no binding (tested: 10 µg/ml)”; in assay [5], “no binding (tested: 10 µg/ml)”; in assay [6], “binds”; in assay [7], “binds”. For the same molecule, in assay [1], the “fold higher affinity than the tested prior art antibodies (DOC2, 1D9, Clone 48607)” value is above 5 fold.

B3: human IgG1 chimeric variant of Y4T3 (Y4T3-chim) (antibody, V domains shown)
VH: B2 VH
VL: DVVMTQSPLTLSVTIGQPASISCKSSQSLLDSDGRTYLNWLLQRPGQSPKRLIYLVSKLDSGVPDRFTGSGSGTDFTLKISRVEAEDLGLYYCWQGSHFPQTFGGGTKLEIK
notes: also called H0L0
As for B3, the binding result in assay [8] was “no binding (tested: 10 µg/ml and 1 µg/ml)”.

B4: hY4T3 (humanized Y4T3, variant H3L1) (antibody, V domains shown)
VH: QVQLVQSGAEVKKPGASVKVSCKASGSTFTRYTMHWVRQAPGQRLEWIGFIVPSTGYTKYNQKFKDRVTITRDTSASTAYMELSSLRSEDTAVYYCARNKEVDYGASWGQGTLVTVSS
VL: DVVMTQSPLSLPVTLGQPASISCKSSQSLLDSDGRTYLNWFQQRPGQSPRRLIYLVSKLDSGVPDRFSGSGSGTDFTLKITRVEAEDVGVYYCWQGSHFPQTFGQGTKVEIK
notes: detected with anti-human IgG; Human IgG1 is named as the preferred class
In the case of B4, the binding result in assay [9] is “binds”; in assay [10], “binds”; in [8], “no binding (tested: 10 µg/ml and 1 µg/ml)”; in [11], “no binding”.
